Results published in paper PMC2859985 (Virus research, 2010).

Experiments:
[1] = biological target: importin alpha 5, His-tagged (human, UniProt P52294 1-538); test: pull-down
[2] = biological target: T1, importin alpha 3, His-tagged (human, UniProt O00629 1-521); test: pull-down
T1 sequence (looked up): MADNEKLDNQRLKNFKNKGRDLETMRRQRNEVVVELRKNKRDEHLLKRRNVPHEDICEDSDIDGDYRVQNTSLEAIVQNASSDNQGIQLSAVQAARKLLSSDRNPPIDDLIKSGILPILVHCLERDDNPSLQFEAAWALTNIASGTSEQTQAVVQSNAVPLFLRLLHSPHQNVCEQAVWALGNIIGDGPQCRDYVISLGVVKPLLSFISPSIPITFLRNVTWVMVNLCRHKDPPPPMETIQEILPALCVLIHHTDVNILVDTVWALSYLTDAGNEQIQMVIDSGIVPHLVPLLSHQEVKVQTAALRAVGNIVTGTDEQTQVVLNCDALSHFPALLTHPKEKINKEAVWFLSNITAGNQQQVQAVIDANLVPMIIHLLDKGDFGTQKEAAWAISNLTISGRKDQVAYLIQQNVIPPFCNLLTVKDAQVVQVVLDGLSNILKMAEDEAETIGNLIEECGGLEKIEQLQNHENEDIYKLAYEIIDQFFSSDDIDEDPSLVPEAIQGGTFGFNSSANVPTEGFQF

Sequence of importin alpha 5, His-tagged (P52294 whole entry): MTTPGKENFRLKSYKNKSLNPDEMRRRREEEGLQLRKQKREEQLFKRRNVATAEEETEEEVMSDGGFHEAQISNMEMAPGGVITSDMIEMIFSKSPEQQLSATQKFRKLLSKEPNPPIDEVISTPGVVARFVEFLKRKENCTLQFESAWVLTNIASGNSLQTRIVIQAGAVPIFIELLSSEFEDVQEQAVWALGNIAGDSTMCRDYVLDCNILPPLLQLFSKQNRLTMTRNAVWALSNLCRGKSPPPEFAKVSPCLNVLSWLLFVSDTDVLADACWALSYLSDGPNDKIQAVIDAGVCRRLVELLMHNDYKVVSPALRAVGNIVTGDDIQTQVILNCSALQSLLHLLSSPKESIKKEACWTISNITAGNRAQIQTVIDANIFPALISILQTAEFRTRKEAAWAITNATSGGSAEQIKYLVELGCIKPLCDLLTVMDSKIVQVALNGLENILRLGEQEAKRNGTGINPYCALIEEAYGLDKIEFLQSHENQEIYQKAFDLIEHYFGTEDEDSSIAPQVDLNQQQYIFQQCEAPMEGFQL

| Binder | binding result [1] | binding result [2] |
| --- | --- | --- |
| GST-HPV16 E2 (natural protein) METLCQRLNVCQDKILTHYENDSTDLRDHIDYWKHMRLECAIYYKAREMGFKHINHQVVPTLAVSKNKALQAIELQLTLETIYNSQYSNEKWTLQDVSLEVYLTAPTGCIKKHGYTVEVQFDGDICNTMHYTNWTHIYICEEASVTVVEGQVDYYGLYYVHEGIRTYFVQFKDDAEKYSKNKVWEVHAGGQVILCPTSVFSSNEVSSPEIIRQHLANHPAATHTKAVALGTEETQTTIQRPRSEPDTGNPCHTTKLLHRDSVDSAPILTAFNSSHKGRINCNSNTTPIVHLKGDANTLKCLRYRFKKHCTLYTAVSSTWHWTGHNVKHKSAIVTLTYDSEWQRDQFLSQVKIPKTITVSTGFMSI | binds |  |
| GST-HPV11 E2 (natural protein) MEAIAKRLDACQDQLLELYEENSIDIHKHIMHWKCIRLESVLLHKAKQMGLSHIGLQVVPPLTVSETKGHNAIEMQMHLESLAKTQYGVEPWTLQDTSYEMWLTPPKRCFKKQGNTVEVKFDGCEDNVMEYVVWTHIYLQDNDSWVKVTSSVDAKGIYYTCGQFKTYYVNFNKEAQKYGSTNHWEVCYGSTVICSPASVSSTVREVSIAEPTTYTPAQTTAPTVSACTTEDGVSAPPRKRARGPSTNNTLCVANIRSVDSTINNIVTDNYNKHQRRNNCHSAATPIVQLQGDSNCLKCFRYRLNDKYKHLFELASSTWHWASPEAPHKNAIVTLTYSSEEQRQQFLNSVKIPPTIRHKVGFMSLHLL | binds | binds |
